{"source": "patent US20250084172A1", "about": "(23ANDME, published 2025)", "binders": {"B1": {"name": "humanized 8E8 (h8E8), Fc version not stated (antibody, V domains shown)", "VH": "QVQLVQSGAEVKKPGSSVKVSCKASGYTFTTYGITWVRQAPGQGLEWIGEIYPGTATSYSNERFKGRATLTADRSTSTAYMELSSLRSEDTAVYFCARRGTYGTYEWYFDVWGRGTLVTVSS", "VL": "DIQMTQSPSSLSASVGDRVTITCRASENIYSHLAWYQQKPGKSPKLLVYAATNLADGVPSRFSGSGSGTDYTLTISSLQPEDFATYYCQHFWGTPWTFGGGTKVEIK", "notes": "also called hu8E8; PUR3924"}, "B2": {"name": "human ULBP6 displayed on M13 phage (ULBP6-HA-pIII) (other)", "chain": "RRDDPHSLCYDITVIPKFRPGPRWCAVQGQVDEKTFLHYDCGNKTVTPVSPLGKKLNVTMAWKAQNPVLREVVDILTEQLLDIQLENYTPKEPLTLQARMSCEQKAEGHSSGSWQFSIDGQTFLLFDSEKRMWTTVHPGARKMKEKWENDKDVAMSFHYISMGDCIGWLEDFLMGMDSTLEPSAGAPLAMSSGYPYDVPDYA", "notes": "also called ULBP6 phage; not shown: M13 minor coat protein pIII"}}, "key": {"[1]": {"molecular_target": "T1, human soluble ULBP6 haplotype 02 (hULBP6_02) (human, UniProt Q5VY80 26-218)", "T1 chain": "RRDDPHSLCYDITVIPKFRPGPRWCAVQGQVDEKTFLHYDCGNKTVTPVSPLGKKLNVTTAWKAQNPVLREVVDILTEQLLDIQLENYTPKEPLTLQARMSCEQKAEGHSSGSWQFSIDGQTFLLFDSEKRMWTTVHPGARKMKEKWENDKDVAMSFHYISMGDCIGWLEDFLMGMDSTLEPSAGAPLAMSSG", "experiment": "cell-based or functional assay"}, "[2]": {"molecular_target": "T1, human soluble ULBP6 haplotype 02 …", "experiment": "Biacore binding to ULBP6_02 (SPR)"}, "[3]": {"molecular_target": "anti-HA antibody", "experiment": "phage ELISA: plate coated with anti-HA antibody, phage titrated in 3-fold steps from 1.0 O.D./mL, HRP anti-M13 detection, O.D. 450"}, "[4]": {"molecular_target": "hNKG2D-Fc (human NKG2D 78-216 with C-terminal long huFc-Flag tag) (human)", "sequence (chain, as listed by the source limits assumed)": "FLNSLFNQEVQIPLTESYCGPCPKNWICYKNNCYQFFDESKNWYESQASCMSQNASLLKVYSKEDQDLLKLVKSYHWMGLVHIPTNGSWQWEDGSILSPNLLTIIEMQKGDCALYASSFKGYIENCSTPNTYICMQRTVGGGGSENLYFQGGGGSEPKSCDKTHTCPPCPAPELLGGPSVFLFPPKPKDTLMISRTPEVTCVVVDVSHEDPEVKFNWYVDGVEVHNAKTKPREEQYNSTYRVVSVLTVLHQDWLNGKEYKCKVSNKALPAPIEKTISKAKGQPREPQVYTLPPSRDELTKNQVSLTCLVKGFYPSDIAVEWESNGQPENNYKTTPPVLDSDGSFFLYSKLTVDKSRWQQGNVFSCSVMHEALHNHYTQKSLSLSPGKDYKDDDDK", "experiment": "phage ELISA: plate coated with the ULBP6 receptor NKG2D (PUR4928, construct not stated), phage titrated in 3-fold steps from 1.0 O.D./mL, HRP anti-M13 detection, O.D. 450"}}}
{"binder": "B1", "values": [{"measurement": "IC50 (read off the curve); fall of NKG2D MFI on primed PBMCs with 50 nM sULBP6_02", "setting": "[1]", "result": "~3", "unit": "nM"}, {"measurement": "Kd", "setting": "[2]", "result": 1.56, "unit": "nM"}]}
{"binder": "B2", "values": [{"measurement": "EC50 (read off the curve)", "setting": "[3]", "result": "~0.01 O.D. (phage)"}, {"measurement": "EC50 (read off the curve)", "setting": "[4]", "result": "~0.01 O.D. (phage)"}]}
